Substrate in data set [1]: O=c1cc(-c2ccc(O)c(O)c2)oc2cc(O)c([C@@H]3O[C@H](CO)[C@@H](O)[C@H](O)[C@H]3O)c(O)c12
Description: O-methyltransferase assay, UPLC, Michaelis-Menten fit. The data set is classed as biochemical, Isatis tinctoria. The conditions noted are these: 480 μM SAM, Tris-HCl pH 8.0, 45 °C. The source says:
(§1) O-methyltransferase assay, UPLC, Michaelis-Menten fit on IiOMT1

Substrate in data set [2]: O=c1cc(-c2ccc(O)c(O)c2)oc2cc(O)cc(O)c12
The description is as above. The data set is classed as biochemical, Isatis tinctoria. The settings on record: 480 μM SAM, Tris-HCl pH 8.0, 45 °C.
Excerpt: as §1

B1: IiOMT1 (Isatis tinctoria) (protein)
chain: MATTTTEATKTSTNGEDKQSQNLRHQEVGHKSLLQSDDLYQYILETSVYPREPESMKELREVTAKHPWNIMTTSADEGQFLNMLIKLINAKNTMEIGVYTGYSLLATALALPEDGKILAMDVNRENYELGLPIIEKAGVAHKIDFREGPALPVLDQLVADEKNHGTYDFIFVDADKDNYINYHKRLIDLVKVGGVIGYDNTLWNGSVVAAPDAPMRKYVRYYRDFVLELNKALAADPRIEICMLPVGDGITICRRIN
notes: N-terminal His6-SUMO tag kept (pE-SUMO), E. coli Rosetta (DE3), Ni-NTA
For the protein B1, in data set [1], the Michaelis constant (Km) stood at 75.56 ± 8.21 µmol/L, the catalytic constant (kcat) was 0.304 s⁻¹ and the kcat/Km was found to be 4040 M⁻¹ s⁻¹. Moreover, in data set [2], the Michaelis constant (Km) worked out at 113.5 ± 10.41 µmol/L, the catalytic constant (kcat) stood at 0.413 s⁻¹ and the catalytic efficiency (kcat/Km) was found to be 3650 M⁻¹ s⁻¹.

The values above are taken from article PMC9437721, “Identification and characterization of two Isatis indigotica O-methyltransferases methylating C-glycosylflavonoids” (Horticulture Research, 2022).
